First the molecules themselves.
B1: WT DR3 extracellular domain fused with human IgG1 Fc (DR3-Fc WT) (Fc fusion)
chain: GGTRSPRCDCAGDFHKKIGLFCCRGCPAGHYLKAPCTEPCGNSTCLVCPQDTFLAWENHHNSECARCQACDEQASQVALENCSAVADTRCGCKPGWFVECQVSQCVSSSPFYCQPCLDCGALHRHTRLLCSRRDTDCGTCLPGFYEHGDGCVSCPTSTLGSCPERCAAVCGWRQIEGRMDRSVECPPCPAPPVAGPSVFLFPPKPKDTLMISRTPEVTCVVVDVSHEDPEVKFNWYVDGVEVHNAKTKPREEQYNSTYRVVSVLTVLHQDWLNGKEYKCKVSNKGLPSSIEKTISKAKGQPREPQVYTLPPSREEMTKNQVSLTCLVKGFYPSDIAVEWESNGQPENNYKTTPPVLDSDGSFFLYSKLTVDKSRWQQGNVFSCSVMHEGLHNHYTQKSLSLSPGK
notes: also called DR3 WT; soluble DR3 WT
B2: DR3 variant having SEQ ID NO: 5, fused with human IgG1 Fc (Fc fusion)
chain: B1 chain with E38K, V47P, W56R, A65T, K93A, Q101S, L129P
notes: Linker and Fc as for m2
B3: DR3 variant having SEQ ID NO: 2, fused with human IgG1 Fc (Fc fusion)
chain: B1 chain with I18Y, V47P, D51G, A65T, K93A, Q101S, L129P
notes: Linker and Fc as for m2
B4: DR3 variant having SEQ ID NO: 4, fused with human IgG1 Fc (Fc fusion)
chain: B1 chain with I18Y, D51G, K93E, L129P
notes: Linker and Fc as for m2
B5: DR3 variant having SEQ ID NO: 3, fused with human IgG1 Fc (Fc fusion)
chain: B1 chain with I18T, V47P, D51G, N61E, K93E, Q104P, L129P
notes: Linker and Fc as for m2
B6: DR3 variant having SEQ ID NO: 6, fused with human IgG1 Fc (Fc fusion)
chain: B1 chain with H15Q, V47P, W56R, Q104P
notes: Tested as secreted Fc fusion in HEK293 medium (ELISA screen); Linker and Fc as for m2
B7: DR3 variant having SEQ ID NO: 7, fused with human IgG1 Fc (Fc fusion)
chain: B1 chain with E38K, V47P, A65T, Q101S
notes: as for B6
B8: DR3 variant having SEQ ID NO: 9, fused with human IgG1 Fc (Fc fusion)
chain: B1 chain with H15Q, V47P, N61E, K93E, Q101S, Q104P, L129P
notes: as for B6
B9: DR3 (receptor, human, UniProt Q93038 25-199, looked up)
receptor extracellular domain displayed on the yeast surface as an Aga2 fusion: QGGTRSPRCDCAGDFHKKIGLFCCRGCPAGHYLKAPCTEPCGNSTCLVCPQDTFLAWENHHNSECARCQACDEQASQVALENCSAVADTRCGCKPGWFVECQVSQCVSSSPFYCQPCLDCGALHRHTRLLCSRRDTDCGTCLPGFYEHGDGCVSCPTSTLGSCPERCAAVCGWRQ
notes: extracellular domain, wild type, Aga2 fusion on EBY100 yeast

Where a chain is given by its changes, count along the chain named.

The first test has as its target T1, TNF-like 1A (TL1A) (UniProt O95150 72-251).
T1 construct: Bought soluble TL1A; Biotinylated for yeast display, unlabelled in SPR and ELISA; also called TL1A cytokine
T1 sequence (looked up): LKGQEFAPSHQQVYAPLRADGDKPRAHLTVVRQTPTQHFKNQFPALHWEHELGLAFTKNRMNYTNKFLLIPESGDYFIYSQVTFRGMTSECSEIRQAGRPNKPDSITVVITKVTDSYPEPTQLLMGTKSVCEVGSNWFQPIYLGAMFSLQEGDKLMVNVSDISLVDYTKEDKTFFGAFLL
As to the kind of experiment: SPR (ProteOn XPR36), DR3-Fc immobilized, TL1A as analyte. The method, then:
The affinity of TL1A binding to DR3 variants was determined by surface plasmon resonance (SPR) measurements on a ProteOn XPR36 (Bio-Rad) instrument. All samples were in PBS containing 2 mM of DTT. A GLC Chip was air-initialized and activated with EDC/S-NHS. 5 μg from each of the DR3 variants were diluted in acetate buffer, pH 5.5, and immobilized onto the chip as a reference and BSA was also loaded onto the chip. After blocking available unbound sites on the chip with ethanolamine, the chip was washed with HBST buffer and rotated. TL1A was run at 30 μl/min for 300 sec at various concentrations (100, 50, 25, 12.5 and 6.25 nM), followed by a 10-min dissociation step. Binding parameters were determined with the Langmuir single binding site model, using the Bio-Rad's proteOn Manager software V2.1.2.05.
Next, the TL1A binding affinity to the different DR3 variants was characterized using surface plasmon resonance (Table 3).
Usually Kd stands for a measure of binding affinity in units of concentration. High values mean lower affinity, low ones higher affinity. A word on the koff: it is the first-order rate constant of dissociation. Read a low koff as a long-lived complex. For orientation: kon means the second-order rate constant of association. For the molecule B1, the Kd was 44.9 nM, the koff was 0.00072 s⁻¹ and the kon came to 16000 M⁻¹ s⁻¹.

On to B2, for which the “Fold increase in Affinity (against WT)” value amounted to 1.7 fold, binding was put at a Kd of 26.9 nM, the off-rate (koff) is 0.000643 s⁻¹ and the kon worked out at 23900 M⁻¹ s⁻¹.

As for B3, the “Fold increase in Affinity (against WT)” value was determined as 5 fold, binding was put at a Kd of 8.26 nM, the koff came to 0.000351 s⁻¹ and the kon amounted to 42600 M⁻¹ s⁻¹.

As for B4, the “Fold increase in Affinity (against WT)” value was 4.6 fold, the Kd amounted to 9.83 nM, the koff is 0.000357 s⁻¹ and the kon worked out at 36300 M⁻¹ s⁻¹.

Turning to B5, the “Fold increase in Affinity (against WT)” value amounted to 6.6 fold, binding was characterised by a dissociation constant (Kd) of 6.79 nM, the koff came out at 0.000237 s⁻¹ and the kon is 34900 M⁻¹ s⁻¹.

For another test, the target named is T1, TNF-like 1A (TL1A). As to the kind of experiment: ELISA screen, HEK293 medium with secreted DR3-Fc on captured TL1A. On the procedure:
The plates were then washed with PBST and blocked by incubation with 150 μl of PBS supplemented with 3% skim milk for 1 hour. Following blocking, the plates were washed and incubated with 100 μl of media of HEK293T transfected with WT or DR3 mutants harvested 48 or 72 hours post transfection, ELISA plates were shaken for additional hour. DR3-Fc (R&D Systems) was added at a concentration of 2 μg/ml as a positive control, and PBS supplemented with 1% BSA served as a negative control. Plates were then washed with PBST, incubated with 100 μl of 0.05 μg/ml of biotinylated goat polyclonal α-DR3 antibodies (R&D Systems), followed by incubation with secondary peroxidase-conjugated streptavidin (Jackson, 1:10000 dilution). Finally, 100 μl of horseradish peroxidase (HRP) chromogenic 3,3′,5,5′-tetramethylbenzidine (TMB) substrate solution (Dako) were added. The reaction was stopped by the addition of 1 M sulfuric acid and recorded at 450 nm using a Tecan Infinite M200 plate reader.
To identify single DR3 mutant candidates with enhanced binding affinity for TL1A, the FACS-enriched library was sub-cloned into a mammalian vector containing leader peptide and fused with human IgG1 Fc. […] Thus, the mammalian based expression of soluble DR3 receptor offers the advantage of maintaining the native protein posttranslational modifications including glycosylation. To obtain high level of DR3 expression in mammalian cells, the leader peptide sequence was optimized (FIG. 4), transfection and expression conditions in HEK293F cells (see Experimental Procedures for details). To facilitate the screening of a relatively large number of DR3 mutants, cells were transfected in 24 plate format and the secreted DR3 was examined for TL1A interaction using ELISA. A fast and sensitive ELISA that is based on immobilizing TL1A on multi-well plates and detecting DR3 binding using specific antibodies was developed (FIG. 5).
In general terms: An ELISA detects its analyte on a solid surface through an enzyme-linked reagent.
As to B6, the binding result was “binds”.

Take B7: the binding result was “binds”.

As for B8, the binding result is “binds”.

In another test the target is T1, TNF-like 1A (TL1A). As to the kind of experiment: flow cytometry of yeast displaying DR3 as Aga2 fusion, incubated with 0.2 uM biotinylated TL1A, detected with streptavidin-APC. The method, then:
FIGS. 3A-B. Screening for improved DR3 mutants using yeast surface display (YSD). […] Expression and TL1A binding are detected by fluorescent antibodies and streptavidin, respectively. (B) Flow cytometry histogram analysis of cell population displaying WT DR3, DR3 mutant library after two rounds (R2) and three rounds of enrichment (R3) for binding to TL1A. Cell population that lacks surface display is shown in black. Analysis of cells was performed following incubation with 0.2 μM of TL1A.
Briefly, EBY100 cells transformed with plasmid pCTCON containing the desired clone were grown in SDCAA media (20 g […], 6.7 g yeast nitrogen base, 5 g casamino acids, 5.4 g Na2HPO4 and 8.56 g NaH2PO4*H2O) at 30° C. to logarithmic phase. Then, 2*10⁶ of cells were washed, resuspended in SGCAA induction media (similar to SDCAA but containing galactose instead of […]) and grown at 30° C. with shaking for an additional 18 hours. Induced cells (1*10⁶) were collected by centrifugation, washed with PBSF (PBS+1 g/L BSA) and incubated for 1 hour at […] with 0.2 μM TL1A (R&D Systems) that was biotinylated using biotin labeling kit (Pierce) according to manufacturer's procedure. […] The labeled cells were washed, resuspended with PBSF and analyzed by flow cytometry (FACS Calibur, BD).
(In general: A flow cytometer gives signals particle by particle.)
Consider B9, for which the binding result is “binds”.

(Values after patent US20170114118A1 (NATIONAL INSTITUTE FOR BIOTECHNOLOGY I, published 2017).)
